Reference: publication doi:10.1101/2022.05.28.493848

Molecular target: Porcine skeletal muscle α-actin, filamentous (porcine) (UniProt P68137)

How did the coupling efficiency (kcat/Kapp) of the actin-activated ATPase turn out when “MyoB-MLC-B CaMLD complex, purified (from UniProt Q8I465 1-801; Q8III1 1-652)” was run?
The coupling efficiency (kcat/Kapp) of the actin-activated ATPase was 9.
